We go through 8 proteins from US8765433B2, “Alcohol dehydrogenases (ADH) useful for fermentive production of lower alkyl alcohols” (priority 2009, dated 2014).

Substrate in data set [1]: NC(=O)C1=CN([C@@H]2O[C@H](COP(=O)(O)OP(=O)(O)OC[C@H]3O[C@@H](n4cnc5c(N)ncnc54)[C@H](O)[C@@H]3O)[C@@H](O)[C@H]2O)C=CC1
The data set can be described thus: purified protein, by the assay type. The note with it: other: cofactor; 30.0 °C.

Substrate in data set [2]: CC(C)C=O
Briefly: purified protein, by the assay type. Format: biochemical, Beijerinckia indica. The note with it: other: 30° C., pH 7.0, 200 μM NADH.

Substrate in data set [3]: CC(C)CO
Briefly: isobutanol oxidation kinetics. The following applies: other: 30° C., pH 8.8, 7.5 mM NAD. Format: biochemical, Beijerinckia indica. As to the method:
(§1) As a routine practice, the crude extracts and purified proteins were assayed for butanol oxidation activity, in order to ensure that the recombinant proteins were active throughout the purification process. […] Alcohol oxidation activities were carried out in 50 mM sodium phosphate buffer at pH 8.8 and aldehyde reduction reactions were assayed in 190 mM potassium phosphate buffer at pH 7.0. Depending on the nature of reaction being carried out, the enzyme and cofactor stocks were diluted in the reaction buffers at the respective pHs. Either buffer or cell extract prepared from the proprietary E. coli strain (with no ADH plasmid) was used as the negative control for assays with purified protein and cell-free extracts, respectively.
(§2) Kinetic constants of the ADH enzymes were calculated and compared to identify those candidate ADH enzymes with the most desirable properties for the conversion of isobutyraldehyde to isobutanol in the last step of the engineered pathway for isobutanol production. The assays for determining the kinetic constants were carried out using initial rates from the assays described above. […] The concentration of a given enzyme was such that it was conducive for the measurement of initial velocities over a 1-min time course. […] The kcat/KM is derived from the individual numbers of kcat and KM and not an experimentally determined value. […]

Substrate in data set [4]: CC(C)C=O
Briefly: isobutyraldehyde reduction kinetics (A340, initial rates). Format: biochemical, Phenylobacterium zucineum HLK1. The following applies: other: 30° C., pH 7.0, NADH specific. From the text:
(§3) This example describes preparation of ADH-gene constructs for over-expression/purification and measurement of enzyme activities using a time-course assay. Horse-liver ADH (HLADH; A-6128) was purchased from Sigma. Achromobacter xylosoxidans SadB (SadB), Saccharomyces cerevisiae ADH6 (ScADH6) and ADH7 (ScADH7), Entamoeba histolytica ADH1 (EhADH1), Bos Taurus Aldehyde Reductase (BtARD), Beijerinckia indica subsp. Indica ATCC 9039 (BiADH), Clostridium beijerinckii ADH (CbADH), Rana perezi ADH8 (RpADH8), Rattus norvegicus ADH1 (RnADH1), Thermus sp. ATN1 ADH (TADH), Phenylobacterium zucineum HLK1 ADH (PzADH), Methylocella silvestris BL2 ADH (MsADH), Acinetobacter baumannii AYE ADH (AbADH), Geobacillus sp. WCH70 ADH (GbADH), Vanderwaltozyma polyspora DSM 70294 ADH (VpADH), Mucor circinelloides ADH (McADH), and Rhodococcus erythropolis PR4ADH (ReADH) were the candidates for which subclones were prepared for protein expression and purification.
(§4) As a routine practice, the crude extracts and purified proteins were assayed for butanol oxidation activity, in order to ensure that the recombinant proteins were active throughout the purification process. […] Alcohol oxidation activities were carried out in 50 mM sodium phosphate buffer at pH 8.8 and aldehyde reduction reactions were assayed in 190 mM potassium phosphate buffer at pH 7.0. […]
(§5) Kinetic constants of the ADH enzymes were calculated and compared to identify those candidate ADH enzymes with the most desirable properties for the conversion of isobutyraldehyde to isobutanol in the last step of the engineered pathway for isobutanol production. […] The kcat/KM is derived from the individual numbers of kcat and KM and not an experimentally determined value. […]
(§6) Seven additional candidate ADH enzymes were synthesized, expressed, and assayed according to methods such as described in Example 2. […] A comparison of KM, KI, and kcat/KM for each candidate enzyme as compared to the same parameter for SadB are given in Table 9 as a percentage of the values determined (Table 7) for SadB. […]

Substrate in data set [5]: CC(C)C=O
The description is as above. Format: biochemical, Saccharomyces cerevisiae. The note with it: other: 30° C., pH 7.0, NADPH specific.

Substrate in data set [6]: CC(C)C=O
Described as above. Format: biochemical, Thermus sp. ATN1. The following applies: other: 30° C., pH 7.0, NADH specific.

Substrate in data set [7]: CC(C)C=O
The description is as above. It counts as biochemical, Clostridium beijerinckii. The note with it: other: 30° C., pH 7.0, NADPH specific.

Substrate in data set [8]: CC(C)C=O
The description is as above. It counts as biochemical, Methylocella silvestris BL2. The note with it: other: 30° C., pH 7.0, NADH specific.
From the text: as §3, §4, §5, §6

Substrate in data set [9]: CC(C)C=O
The description is as above. Format: biochemical, horse. The following applies: other: 30° C., pH 7.0, 200 μM NADH.

Substrate in data set [10]: CC(C)CO
The data set can be described thus: isobutanol oxidation kinetics. The note with it: other: 30° C., pH 8.8, 7.5 mM NAD. Format: biochemical, horse. As to the method: as §1, §2

B1: Beijerinckia indica subsp. Indica ATCC 9039 ADH (BiADH), SEQ ID NO: 31 (Beijerinckia indica subsp. indica ATCC 9039) (protein)
chain: MKALVYRGPGQKLVEERQKPELKEPGDAIVKVTKTTICGTDLHILKGDVATCKPGRVLGHEGVGVIESVGSGVTAFQPGDRVLISCISSCGKCSFCRRGMFSHCTTGGWILGNEIDGTQAEYVRVPHADTSLYRIPAGADEEALVMLSDILPTGFECGVLNGKVAPGSSVAIVGAGPVGLAALLTAQFYSPAEIIMIDLDDNRLGLAKQFGATRTVNSTGGNAAAEVKALTEGLGVDTAIEAVGIPATFELCQNIVAPGGTIANVGVHGSKVDLHLESLWSHNVTITTRLVDTATTPMLLKTVQSHKLDPSRLITHRFSLDQILDAYETFGQAASTQALKVIISMEA
Regarding B1, the Km result in data set [1] was “KM (NADH) = 0.06 mM mM”; in [2] it was 200 µM; in data set [3] it was “KM = 4.7 mM] mM”. Further, the catalytic constant (kcat) in data set [2] came to 283 s⁻¹. Besides, in [2], the kcat/Km turned out to be 1.25e+06 M⁻¹ s⁻¹.

B2: Phenylobacterium zucineum HLK1 ADH (PzADH), SEQ ID NO: 34 (Phenylobacterium zucineum HLK1) (protein)
chain: MKALVYGGPGQKSLEDRPKPELQAPGDAIVRIVKTTICGTDLHILKGDVATCAPGRILGHEGVGIVDSVGAAVTAFRPGDHVLISCISACGKCDYCRRGMYSHCTTGGWILGNEIDGTQAEYVRTPHADTSLYPVPAGADEEALVMLSDILPTGFECGVLNGKVAPGGTVAIVGAGPIGLAALLTAQFYSPAEIIMIDLDDNRLGIARQFGATQTINSGDGRAAETVKALTGGRGVDTAIEAVGVPATFELCQDLVGPGGVIANIGVHGRKVDLHLDRLWSQNIAITTRLVDTVSTPMLLKTVQSRKLDPSQLITHRFRLDEILAAYDTFARAADTQALKVIIAA
Turning to B2, in data set [4], the Km came to 100 µM, the kcat stood at 30 s⁻¹ and the kcat/Km is 321000 M⁻¹ s⁻¹.

B3: Saccharomyces cerevisiae ADH7 (ScADH7), SEQ ID NO: 23 (Saccharomyces cerevisiae S288C) (protein)
chain: MLYPEKFQGIGISNAKDWKHPKLVSFDPKPFGDHDVDVEIEACGICGSDFHIAVGNWGPVPENQILGHEIIGRVVKVGSKCHTGVKIGDRVGVGAQALACFECERCKSDNEQYCTNDHVLTMWTPYKDGYISQGGFASHVRLHEHFAIQIPENIPSPLAAPLLCGGITVFSPLLRNGCGPGKRVGIVGIGGIGHMGILLAKAMGAEVYAFSRGHSKREDSMKLGADHYIAMLEDKGWTEQYSNALDLLVVCSSSLSKVNFDSIVKIMKIGGSIVSIAAPEVNEKLVLKPLGLMGVSISSSAIGSRKEIEQLLKLVSEKNVKIWVEKLPISEEGVSHAFTRMESGDVKYRFTLVDYDKKFHK
notes: hexa-histidine (pBADHisA) (N); made in house; host or cells: E. coli (BL21-CodonPlus or a proprietary E. coli strain)
As for B3, in [5], the Michaelis-Menten constant (Km) came out at 300 µM, the kcat was 36 s⁻¹ and the kcat/Km stood at 120000 M⁻¹ s⁻¹.

B4: Thermus sp. ATN1 ADH (TADH), SEQ ID NO: 33 (Thermus sp. ATN1) (protein)
chain: MRAVVFENKERVAVKEVNAPRLQHPLDALVRVHLAGICGSDLHLYHGKIPVLPGSVLGHEFVGQVEAVGEGIQDLQPGDWVVGPFHIACGTCPYCRRHQYNLCERGGVYGYGPMFGNLQGAQAEILRVPFSNVNLRKLPPNLSPERAIFAGDILSTAYGGLIQGQLRPGDSVAVIGAGPVGLMAIEVAQVLGASKILAIDRIPERLERAASLGAIPINAEQENPVRRVRSETNDEGPDLVLEAVGGAATLSLALEMVRPGGRVSAVGVDNAPSFPFPLASGLVKDLTFRIGLANVHLYIDAVLALLASGRLQPERIVSHYLPLEEAPRGYELFDRKEALKVLLVVRG
Consider B4, for which, in [6], the Km is 1300 µM, the turnover number (kcat) was 15 s⁻¹ and the kcat/Km was found to be 11000 M⁻¹ s⁻¹.

B5: Saccharomyces cerevisiae ADH6 (ScADH6), SEQ ID NO: 22 (Saccharomyces cerevisiae S288C) (protein)
chain: MSYPEKFEGIAIQSHEDWKNPKKTKYDPKPFYDHDIDIKIEACGVCGSDIHCAAGHWGNMKMPLVVGHEIVGKVVKLGPKSNSGLKVGQRVGVGAQVFSCLECDRCKNDNEPYCTKFVTTYSQPYEDGYVSQGGYANYVRVHEHFVVPIPENIPSHLAAPLLCGGLTVYSPLVRNGCGPGKKVGIVGLGGIGSMGTLISKAMGAETYVISRSSRKREDAMKMGADHYIATLEEGDWGEKYFDTFDLIVVCASSLTDIDFNIMPKAMKVGGRIVSISIPEQHEMLSLKPYGLKAVSISYSALGSIKELNQLLKLVSEKDIKIWVETLPVGEAGVHEAFERMEKGDVRYRFTLVGYDKEFSD
notes: as for B3
Consider B5, for which, in [5], the Km stood at 600 µM, the kcat stood at 47 s⁻¹ and the kcat/Km is 81000 M⁻¹ s⁻¹.

B6: Clostridium beijerinckii ADH (CbADH), SEQ ID NO: 29 (Clostridium beijerinckii) (protein)
chain: MKGFAMLGINKLGWIEKERPVAGSYDAIVRPLAVSPCTSDIHTVFEGALGDRKNMILGHEAVGEVVEVGSEVKDFKPGDRVIVPCTTPDWRSLEVQAGFQQHSNGMLAGWKFSNFKDGVFGEYFHVNDADMNLAILPKDMPLENAVMITDMMTTGFHGAELADIQMGSSVVVIGIGAVGLMGIAGAKLRGAGRIIGVGSRPICVEAAKFYGATDILNYKNGHIVDQVMKLTNGKGVDRVIMAGGGSETLSQAVSMVKPGGIISNINYHGSGDALLIPRVEWGCGMAHKTIKGGLCPGGRLRAEMLRDMVVYNRVDLSKLVTHVYHGFDHIEEALLLMKDKPKDLIKAVVIL
notes: as for B3
With B6, in [7], the Km was 1500 µM, the kcat is 123 s⁻¹ and the kcat/Km came out at 85000 M⁻¹ s⁻¹.

B7: Methylocella silvestris BL2 ADH (MsADH), SEQ ID NO: 35 (Methylocella silvestris BL2) (protein)
chain: MKALVYHGPGQKALEERPKPQIEASGDAIVKIVKTTICGTDLHILKGDVATCAPGRILGHEGVGIIDSVGAGVTAFQPGDRVLISCISSCGKCDYCRRGLYSHCTTGGWILGNEIDGTQAEYVRTPHADTSLYRIPAGADEEALVMLSDILPTGFECGVLNGKVEPGSTVAIVGAGPIGLAALLTAQFYAPGDIIMIDLDDNRLDVARRFGATHTINSGDGKAAEAVKALTGGIGVDTAIEAVGIPATFLLCEDIVAPGGVIANVGVHGVKVDLHLERLWAHNITITTRLVDTVTTPMLLKTVQSKKLDPLQLITHRFTLDHILDAYDTFSRAADTKALKVIVSA
Regarding B7, in data set [8], the Michaelis-Menten constant (Km) was found to be 60 µM, the kcat turned out to be 33 s⁻¹ and the kcat/Km was 530000 M⁻¹ s⁻¹.

B8: horse liver ADH (HLADH), SEQ ID NO: 21 (Equus caballus) (protein)
chain: MSTAGKVIKCKAAVLWEEKKPFSIEEVEVAPPKAHEVRIKMVATGICRSDDHVVSGTLVTPLPVIAGHEAAGIVESIGEGVTTVRPGDKVIPLFTPQCGKCRVCKHPEGNFCLKNDLSMPRGTMQDGTSRFTCRGKPIHHFLGTSTFSQYTVVDEISVAKIDAASPLEKVCLIGCGFSTGYGSAVKVAKVTQGSTCAVFGLGGVGLSVIMGCKAAGAARIIGVDINKDKFAKAKEVGATECVNPQDYKKPIQEVLTEMSNGGVDFSFEVIGRLDTMVTALSCCQEAYGVSVIVGVPPDSQNLSMNPMLLLSGRTWKGAIFGGFKSKDSVPKLVADFMAKKFALDPLITHVLPFEKINEGFDLLRSGESIRTILTF
notes: purchased Sigma A-6128
In the case of B8, in [9], the Km amounted to 100 µM, the kcat stood at 8 s⁻¹ and the kcat/Km stood at 82000 M⁻¹ s⁻¹. Further, the Km entry in [10] is listed as “KM = 0.4 mM] mM”.
